Test results taken from IntAct's records for PubMed 20223215.

B1: Low-density lipoprotein receptor-related protein 8 (Homo sapiens), Q14114 (parent)
chain: MGLPEPGPLRLLALLLLLLLLLLLQLQHLAAAAADPLLGGQGPAKDCEKDQFQCRNERCIPSVWRCDEDDDCLDHSDEDDCPKKTCADSDFTCDNGHCIHERWKCDGEEECPDGSDESEATCTKQVCPAEKLSCGPTSHKCVPASWRCDGEKDCEGGADEAGCATLCAPHEFQCGNRSCLAAVFVCDGDDDCGDGSDERGCADPACGPREFRCGGDGGGACIPERWVCDRQFDCEDRSDEAAELCGRPGPGATSAPAACATASQFACRSGECVHLGWRCDGDRDCKDKSDEADCPLGTCRGDEFQCGDGTCVLAIKHCNQEQDCPDGSDEAGCLQGLNECLHNNGGCSHICTDLKIGFECTCPAGFQLLDQKTCGDIDECKDPDACSQICVNYKGYFKCECYPGYEMDLLTKNCKAAAGKSPSLIFTNRHEVRRIDLVKRNYSRLIPMLKNVVALDVEVATNRIYWCDLSYRKIYSAYMDKASDPKEQEVLIDEQLHSPEGLAVDWVHKHIYWTDSGNKTISVATVDGGRRRTLFSRNLSEPRAIAVDPLRGFMYWSDWGDQAKIEKSGLNGVDRQTLVSDNIEWPNGITLDLLSQRLYWVDSKLHQLSSIDFSGGNRKTLISSTDFLSHPFGIAVFEDKVFWTDLENEAIFSANRLNGLEISILAENLNNPHDIVIFHELKQPRAPDACELSVQPNGGCEYLCLPAPQISSHSPKYTCACPDTMWLGPDMKRCYRAPQSTSTTTLASTMTRTVPATTRAPGTTVHRSTYQNHSTETPSLTAAVPSSVSVPRAPSISPSTLSPATSNHSQHYANEDSKMGSTVTAAVIGIIVPIVVIALLCMSGYLIWRNWKRKNTKSMNFDNPVYRKTTEEEDEDELHIGRTAQIGHVYPAAISSFDRPLWAEPCLGETREPEDPAPALKELFVLPGEPRSQLHQLPKNPLSELPVVKSKRVALSLEDDGLP

Variants of: B1
Conditions: with reln_mouse Reln
For D69N, the “effect of a mutation on the interaction” value was “disrupting interaction”. D50A was tested, and the “effect of a mutation on the interaction” value was “decreasing interaction”. In the case of V63A, the “effect of a mutation on the interaction” value is reported as “decreasing interaction”. In the case of W64H, the “effect of a mutation on the interaction” value is reported as “disrupting interaction”. With P61A the “effect of a mutation on the interaction” value was “disrupting interaction”.
